Where no end group is shown, it is not given here. [ ]: non-standard residue; d: D form. pY = N[C@@H](Cc1ccc(OP(=O)(O)O)cc1)C(=O)O
How the values were obtained:
Type in all cases: biochemical
PTP1B = molecular target: T1, PTP1B (Homo sapiens, UniProt P18031); assay: Phosphatase assay with ENDY(P)INASL as substrate; conditions: non-linear regression of substrate saturation curves, mean of two experiments
T1 construct: The 37 kDa form of PTP1B; from tissue; host or cells: placenta
T1 sequence (P18031 1-321 limits assumed): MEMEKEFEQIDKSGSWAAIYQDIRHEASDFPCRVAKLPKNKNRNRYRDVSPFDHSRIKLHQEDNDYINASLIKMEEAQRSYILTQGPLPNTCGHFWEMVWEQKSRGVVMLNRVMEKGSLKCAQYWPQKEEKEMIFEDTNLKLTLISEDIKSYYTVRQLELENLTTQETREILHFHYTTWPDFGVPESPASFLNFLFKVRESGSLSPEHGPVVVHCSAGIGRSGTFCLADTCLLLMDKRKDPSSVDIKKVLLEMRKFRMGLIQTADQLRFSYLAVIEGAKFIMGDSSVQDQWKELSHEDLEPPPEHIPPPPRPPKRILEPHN
Method: (§1) The tyrosine phosphatases TC.PTP, TCΔC11.PTP, and RPTPα were purified from infected Sf9 cells as described recently (Zander et al., Biochemistry 30: 6964-6970, 1991; Daum et al., J. Biol. Chem. 266: 12211-12215, 1991). The 37 kDa form of PTP1B and CD45 were purified from placenta and spleen, respectively (according to Tonks et al., J. Biol. Chem. 263: 6722-6730, 1988; Tonks et al., Biochemistry 27: 8695-8701, 1988).
(§2) Phosphatase assays with ENDY(P)INASL were performed in buffer M6. Aliquots of 30 μl or 60 μl containing the phosphopeptide, the phosphatase (-beads) and effectors were incubated for 10 minutes at 30° C. The reaction was stopped by adding 200 μl of a suspension of 10% activated, acid-washed Norit A charcoal (v/v) in 0.9N HCl, 0.1M pyrophosphate and 2 mM NaH2 PO4 (according to Streuli et al., Proc. Natl. Acad. Sci. USA 86: 8698-8702, 1989). The mixture was cleared by 10-minute centrifugation and the radioactivity of 150 μl of the supernate was determined. Assays with MBP and RCML were performed as described in Tonks et al., J. Biol. Chem. 263: 6722-6730, 1988. Protein concentration was determined with BSA as standard (Bradford, Anal. Biochem. 72: 248-254, 1976).

RPTPα = molecular target: T2, RPTPα (Homo sapiens, UniProt P18433); assay: Phosphatase assay with ENDY(P)INASL as substrate
T2 construct: made in house; host or cells: Sf9 cells (baculovirus)
Method: as §1, §2

TC.PTP = molecular target: T3, TC.PTP (Homo sapiens, UniProt P17706); assay: Determination of TC.PTP activity in immunoprecipitates; conditions: for % Dephosphorylation: 100% = total bound radioactivity in the assay
T3 construct: made in house; host or cells: Sf9 cells (baculovirus)
T3 sequence (P17706 1-415): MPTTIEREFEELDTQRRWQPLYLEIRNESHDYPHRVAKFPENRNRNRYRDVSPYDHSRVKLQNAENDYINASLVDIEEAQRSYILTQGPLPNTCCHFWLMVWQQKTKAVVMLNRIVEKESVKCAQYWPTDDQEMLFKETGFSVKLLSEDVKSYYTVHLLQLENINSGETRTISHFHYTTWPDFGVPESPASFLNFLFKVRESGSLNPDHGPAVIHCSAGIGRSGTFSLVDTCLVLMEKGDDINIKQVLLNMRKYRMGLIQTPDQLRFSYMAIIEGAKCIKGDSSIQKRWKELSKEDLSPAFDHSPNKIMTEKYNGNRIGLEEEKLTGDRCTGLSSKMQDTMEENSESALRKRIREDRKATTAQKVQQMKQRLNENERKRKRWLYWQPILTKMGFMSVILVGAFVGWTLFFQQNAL
Method: Immunoprecipitations were carded out in 500 μl buffer AT containing phosphatase (in the amount indicated in the tables below), 3 μl rabbit antisera #6228 raised against the baculovirus expressed TCΔC11.PTP (Zander et al., Biochemistry 30: 6964-6970, 1991) and 20 μl protein A agarose beads. The mixture was rotated overnight at 4° C. The beads were washed three times with HNTG and tested for PTP activity. No PTP activity was detected in controls without antisera.
as §2

T2 sequence (P18433 20-802): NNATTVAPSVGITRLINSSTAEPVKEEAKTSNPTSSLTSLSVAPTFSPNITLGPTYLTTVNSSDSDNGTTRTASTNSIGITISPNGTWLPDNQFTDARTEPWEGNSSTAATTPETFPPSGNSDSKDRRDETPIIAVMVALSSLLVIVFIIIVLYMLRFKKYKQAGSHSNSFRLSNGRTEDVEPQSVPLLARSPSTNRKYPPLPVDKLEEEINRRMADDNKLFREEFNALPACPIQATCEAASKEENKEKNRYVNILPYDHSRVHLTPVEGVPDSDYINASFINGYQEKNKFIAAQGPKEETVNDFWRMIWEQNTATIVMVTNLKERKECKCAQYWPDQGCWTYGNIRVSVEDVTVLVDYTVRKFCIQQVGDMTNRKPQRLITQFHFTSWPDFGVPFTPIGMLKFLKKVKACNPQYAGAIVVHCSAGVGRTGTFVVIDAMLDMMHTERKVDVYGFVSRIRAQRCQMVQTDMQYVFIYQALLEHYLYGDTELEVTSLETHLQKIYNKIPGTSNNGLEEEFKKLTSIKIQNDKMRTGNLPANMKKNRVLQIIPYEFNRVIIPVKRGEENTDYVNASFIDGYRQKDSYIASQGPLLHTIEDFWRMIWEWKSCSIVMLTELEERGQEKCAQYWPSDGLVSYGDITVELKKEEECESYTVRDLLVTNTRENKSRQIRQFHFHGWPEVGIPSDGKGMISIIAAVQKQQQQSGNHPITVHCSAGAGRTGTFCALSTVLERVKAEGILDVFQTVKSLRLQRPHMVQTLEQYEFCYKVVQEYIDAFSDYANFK

“ENDY(P)INASL: ENDYINASL phosphorylated on its tyrosine residue (32P), used as PTP substrate (END[pY]INASL; also: phosphate 32P-labelled)” was tested, and the Km (PTP1B) was 800 ± 450 nM, the Km (RPTPα; non-linear regression of substrate saturation curves, mean of two experiments) was 32.5 ± 3.06 µM and the Vmax (RPTPα; one unit = release of 1 nmol phosphate per minute) was 1038 +/- 88 U/mg. For the same substance, the “Lowest amount of immunoprecipitated phosphatase that could be detected with the substrate” value (TC.PTP; TC.PTP immunoprecipitates on beads) was 1 ng, the “% Dephosphorylation” value (TC.PTP; immunoprecipitated TC.PTP 0.3 ng) was 0% and the “% Dephosphorylation” value (TC.PTP; immunoprecipitated TC.PTP 1 ng) was 1.8%. For the same substance, the “% Dephosphorylation” value (TC.PTP; immunoprecipitated TC.PTP 3 ng) was 3.9%, the “% Dephosphorylation” value (TC.PTP; immunoprecipitated TC.PTP 10 ng) was 10.8% and the “% Dephosphorylation” value (TC.PTP; immunoprecipitated TC.PTP 30 ng) was 17.5%. For the same substance, the “% Dephosphorylation” value (TC.PTP; immunoprecipitated TC.PTP 100 ng) was 28.1%.
